The results in this text go back to patent US5252705.

In the test the target is hPTH (1-34) (human) (UniProt P01270). Also noted: unit not given beside the values.
Turning to “Compound 1 (Ser-Glu-Ile-Gln-Leu-Met-His-Asn-Leu-Gly-Lys-Ser-Ile-Gln-Asp-Leu-Arg-Arg-Arg-Phe-Phe-Leu-His-His-Leu-Ile-Ala-Glu-Ile-His-Thr-Ala-NH2) (peptide)”, the IC50: 50% inhibition of cAMP production in cultured mouse osteoblast MC3T3-E1 cells was determined as 0.007. The value for “Compound 3 (Ile-Gln-Leu-Met-His-Asn-Leu-Gly-Lys-Ser-Ile-Gln-Asp-Leu-Arg-Arg-Arg-Phe-Phe-Leu-His-His-Leu-Ile-Ala-Glu-Ile-His-Thr-Ala-NH2) (peptide)” was 0.015; that for “[Tyr^34]-hPTH (3-34)-NH2 (from UniProt P01270) (peptide)” was 1.
